Here are results for 10 molecules from patent US20220177583A1 (University of California, published 2022).

T1: human CLDN6, endogenously expressed on cancer cell lines (human, UniProt P56747 1-220)
T1 construct: also called Endogenous CLDN6+; CLDN6 on ARK2, OVCA429, UMUC4 cells
T1 sequence: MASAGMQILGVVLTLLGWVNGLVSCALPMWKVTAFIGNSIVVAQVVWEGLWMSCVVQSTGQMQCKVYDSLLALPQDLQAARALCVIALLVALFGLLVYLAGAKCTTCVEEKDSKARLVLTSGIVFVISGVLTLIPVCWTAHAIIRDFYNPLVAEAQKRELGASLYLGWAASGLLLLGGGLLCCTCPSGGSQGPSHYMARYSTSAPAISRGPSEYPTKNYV

T2: mouse CLDN6 fused to GFP, expressed on engineered HEK293T cells (mouse, UniProt Q9Z262 1-219)
T2 construct: whole, on cells; also called HEK293T-CLDN6-mGFP Artificial CLDN6+ (mouse); murine CLDN6; not shown: GFP tag
T2 sequence (looked up): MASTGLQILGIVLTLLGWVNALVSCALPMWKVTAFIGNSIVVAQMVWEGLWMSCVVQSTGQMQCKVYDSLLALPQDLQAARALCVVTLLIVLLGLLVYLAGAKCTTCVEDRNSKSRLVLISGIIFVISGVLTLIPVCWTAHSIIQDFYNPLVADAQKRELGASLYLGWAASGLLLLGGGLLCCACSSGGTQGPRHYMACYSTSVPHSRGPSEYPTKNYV

B1: AB11-chim (antibody, V domains shown)
VH: DVQLVESGGGLVQPRGSRKLSCAASGFTFSSFGMHWVRQAPEKGLEWVAYISSDSRTIYYADTVKGRFTISRDNPTNTLFLQMTSLRSEDTAMYYCARDYGRTYEAYWGQGTLVTVSA
VL: DIVLTQSPASLAVSLGQRATISCRASKSVSTSGYSYIHWYQQKPGQPPKLLIYLASNLESGVPARFSGSGSGTDFTLNIHPVEEEDAATYYCQHSRELPLTFGAGTKLELK
notes: Parental antibody prior to humanization ('chim'); also called pre-humanized form of AB11
B2: AB11-2 (antibody, V domains shown)
VH: EVQLVESGGGLVQPGGSLRLSCAASGFTFSSFGMHWVRQAPGKGLEWVAYISSDSRTIYYADSVKGRFTISRDNAKNSLYLQMNSLRAEDTAVYYCARDYGRTYEAYWGQGTLVTVSS
VL: DIVMTQSPDSLAVSLGERATINCRASKSVSTSGYSYIHWYQQKPGQPPKLLIYLASNLESGVPDRFSGSGSGTDFTLTISSLQAEDVAVYYCQHSRELPLTFGQGTKLEIK
notes: Humanized; also called humanized AB 11-2
B3: AB11-3 (antibody, V domains shown)
VH: B2 VH
VL: B2 VL with M4L, L82V, I110L
notes: Humanized; also called humanized AB 11-3
B4: AB3-7 conjugated to MC-VC-PAB-MMAE (conventional) (antibody, V domains shown)
VH: EVQLLESGGGLVQPGGSMRLSCAASGFTFSNYWMNWVRQAPGKGLEWVAQIRLKSDNYATHYADSVKGRFTISRDDSKNTVYLQMNSLRAEDTGVYYCNDGPPSGSWGQGTLLTVSS
VL: DIQMTQSPSSLSASVGDRVTITCRISENIYSYLAWYQQKPGKAPKLLVYNAKILVEGVPSRFSGSGSGTDFTLTISSLQPEDFGTYYCQHHYTVPWTFGQGTKLEIK
modifications: MC-VC-PAB-MMAE conjugated to the antibody, heterogeneous (conventional); sites not stated
notes: Antibody-drug conjugate of humanized AB3-7 (WuXi Biologics); also called CLDN6 ADC; ADC-23 (conventional)
B5: AB3-7 conjugated to MC-GGFG-DXD (antibody, V domains shown)
VH: B4 VH
VL: B4 VL
modifications: MC-GGFG-DXD conjugated to the antibody; sites not stated
notes: Antibody-drug conjugate of humanized AB3-7; also called CLDN6 ADC
B6: AB3-7 conjugated to MC-VC-PAB-MMAE (D4 technology) (antibody, V domains shown)
VH: B4 VH
VL: B4 VL
modifications: MC-VC-PAB-MMAE conjugated to the antibody, substantially 4 drugs per antibody (D4); sites not stated
notes: Antibody-drug conjugate of humanized AB3-7; also called CLDN6 ADC; ADC-23 (D4 technology)
B7: AB3-7 conjugated to CL2A-SN38 (D4 technology) (antibody, V domains shown)
VH: B4 VH
VL: B4 VL
modifications: CL2A-SN38 conjugated to the antibody (D4); sites not stated
notes: as for B5
B8: AB3-7 conjugated to CL2A-SN38 (conventional) (antibody, V domains shown)
VH: B4 VH
VL: B4 VL
modifications: CL2A-SN38 conjugated to the antibody, heterogeneous (conventional); sites not stated
notes: as for B5
B9: AB3-7 conjugated to MC-VC-PAB-DXD (antibody, V domains shown)
VH: B4 VH
VL: B4 VL
modifications: MC-VC-PAB-DXD conjugated to the antibody; sites not stated
notes: as for B5
B10: AB3-7 conjugated to MC-GGFG-MMAE (D4 technology) (antibody, V domains shown)
VH: B4 VH
VL: B4 VL
modifications: MC-GGFG-MMAE conjugated to the antibody (D4); sites not stated
notes: as for B5

Numbering of substitutions follows the chain as printed.

The target of one assay is T1, human CLDN6, endogenously expressed on …. Nature of the assay: FACS, ARK2 cells, 1.5 ug Ab.
Turning to B1, the FACS signal is 1260.
The same measure, in the same setting: under B2 stands 1940.
Molecule B3 yielded an FACS signal of 1540.

The next assay concerns the target T2, mouse CLDN6 fused to GFP, expressed on …. In words: FACS, 293T clone with mouse CLDN6. In general terms: In flow cytometry, cells or beads pass a laser one at a time.
Consider B1, for which the FACS signal was found to be 5490.
B2 showed an FACS signal of 7160.
Same read-out and setting: then B3, with 5520.

The target in another assay is T1, human CLDN6, endogenously expressed on …. In words: flow cytometry on UMUC4 cells (Positive Cell Line), anti-human IgG Fc secondary antibody.
With B4, the “flow cytometry signal at 0.1µg Ab/Sample” value came out at 8910 and the “flow cytometry signal at 1µg Ab/Sample” value came out at 28800.
The corresponding values for B5 are 10500 and 32800.
For B6, in that order: 9450 and 25900.
As for B7, the “flow cytometry signal at 0.1µg Ab/Sample” value worked out at 9140 and the “flow cytometry signal at 1µg Ab/Sample” value came out at 34600.
B8: the “flow cytometry signal at 0.1µg Ab/Sample” value turned out to be 9990 and the “flow cytometry signal at 1µg Ab/Sample” value was 33800.
B9: the “flow cytometry signal at 0.1µg Ab/Sample” value stood at 10800 and the “flow cytometry signal at 1µg Ab/Sample” value is 32600.
On to B10, for which the “flow cytometry signal at 0.1µg Ab/Sample” value was found to be 8790 and the “flow cytometry signal at 1µg Ab/Sample” value stood at 31600.

Another assay has the same target. In words: FACS, ARK2 cells, 0.3 ug Ab.
B1 displayed an FACS signal of 1320.
With B2, the FACS signal was found to be 1400.
For the molecule B3, the FACS signal came to 1320.

The next assay shares this target. Nature of the assay: FACS, OVCA429 cells, 1.5 ug Ab.
Molecule B1 returned an FACS signal of 2440.
Take B2: the FACS signal turned out to be 2690.
Molecule B3 displayed an FACS signal of 2200.
